Molecular target: β2m lacking the N-terminal six residues of the mature protein (human)
Experiment: SEC; analytical size exclusion chromatography of 1 mg/ml protein in phosphate buffered saline pH 7.3 at 25°C; monomer and dimer peaks

percent dimeric: 4%
Substance: β2m lacking the N-terminal six residues of the mature protein (domain or fragment)
